From patent US20150086555A1 (THERACLONE SCIENCES, published 2015)

B1: TCN-552 (5249_I23) (antibody, V domains shown)
VH: QVQVVQSGAEVKKPGSSVRVSCQASGGTFMNYAIIWVRRAPGQGLEWMGGIIPVFPTPNYAQMFQGRVTISTDESRSTSFLELTNLRYEDTAVYYCARRIYHGGNSGFDFWGQGTLVTVSS
VL: EIVLTQSPATLSLSPGERATLSCRASQSVGNYLAWYQQKPGQAPRLLIYDSSNRAPGIPARFSGSGSGTDFTLTISSLAPEDFAVYYCQQRSKWPPMYSFGHGTKLEIK
B2: TCN-549 (5092_P04) (antibody, V domains shown)
VH: QVQLVQSGAEVKKPGASVKVSCKASGYTFTGYYMHWVRQAPGQGLEWMGWINPNSGDTNYAQKFQGRVTMTRDTSITTAYMELSSLRSDDTAVYYCARDSPYSSSWSFFDYWGQGPLVTVSS
VL: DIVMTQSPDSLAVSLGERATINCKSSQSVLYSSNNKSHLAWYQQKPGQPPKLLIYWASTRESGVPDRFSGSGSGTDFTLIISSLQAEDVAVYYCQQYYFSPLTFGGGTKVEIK
B3: TCN-550 (5096_F06) (antibody, V domains shown)
VH: QVQLQESGPGLVKPSETLSLTCTVSGASINSHYWSWIRQPPGKGLEWIGYVYYSGSTTYNPSLKSRVTLSVDTSKNQFSLNLSSVTAADTAFYYCARHPYDVLTGSGDWFDPWGQGTLVTVSS
VL: SYVLTQAPSVSVAPGQTARITCGGNAIGSKKVHWYQHKAGQAPVLVVYDDTDRPSGIPERFSGSNSWSTATLTINRVEAGDEADYYCQVWDFTIDHVVFGGGTKLTVL
B4: TCN-546 (5089_L08) (antibody, V domains shown)
VH: QVQLQQWGAGLLKPSETLSLTCGVYGGSLSDYYWSWIRQPPGKGLEWIGEINHSGGTNYNPSLKRRVTISVDTSKKQFSLKMNSVTAADTAVYYCARGTDPDTEVYCRAGNCAAFDFWGQGTLVTVSS
VL: EIVLTQSPGTLSLSPGERATLSCRASHFVIGRAVAWYQQKPGQAPRLLIYGASSRATGIPDRFSGSGSGTDFTLTISRLETEDFAVFYCQHYGSSPRYAFGQGTKLEIK
B5: TCN-556 (5089_K12) (antibody, V domains shown)
VH: QVQLVQSGAEVKKPGASVKVSCKASGYTFIGYDMHWVRQAPGQGLEWMGWINAKRGGTNYAQKFQGRVTMTRDTSISTAYMELNSLRSDDTAVYYCARGVGSRTTIFGVLNPEFDYWGQGTLVTVSS
VL: QSALTQPPSASGSPGQSVTISCTGSSSDVGGYDYVSWYQQHPGKAPKLLIYEVTKRPSGVPDRFSGSKSGNTASLTVSGLQAEDEADYYCSSYAGNYNHVFGPGTKVTVL
B6: TCN-547 (5092_F11) (antibody, V domains shown)
VH: QVQLQESGPGLVKPSQTLSLTCTVSGDSISSVDHYWSWIRQHPVKGLEWIGFMYYSASTYYNPSLKSRVTISTDTSKNQFSLRLSSVTAADTAVYYCARGTCAGDCSLHYYYYGLDVWGQGRTVTVSS
VL: DIQMTQSPSSLSASVGDRVTITCRASQSISSYLNWYQHKPGKAPKVLMYAVSILQSGVPSRFSGSGSGADFTLTISSLQPEDFATYYCQQSYSSPLTFGGGTKVEIK
B7: TCN-553 (5261_C18) (antibody, V domains shown)
VH: QVQVVQSGTEVKKPGSSVKVSCQTSGGRFMSYAITWVRQAPGQGLEWMGGIVPVFGTANYAQKFQGRVTITTDDSTRTAYMELSSLRSEDTAVYYCGFRYGSGYGFDSWGQGTLVTVSS
VL: EIVLTQSPGTLSLSPGERATLSCRASQSVSSSYLAWYQKKPGQAPRLLIYGASTRATGIPDRFTGSGSGTDFTLSISRLEPEDFAVYYCQHFGTSVFTFGGGTKVEIK
B8: TCN-548 (5092_P01) (antibody, V domains shown)
VH: QVQLQESGPGLVKPSETLSLTCTVSSGPMSDYYWSWIRQPPGKGLEWIGHVSVSHGGRTKSNPSVMSRVTISVETSKNQFSLKLTSVTAADTAVYYCARLNYYDRSGYHSPDGPSNNWFDPWGQGTLVTVSS
VL: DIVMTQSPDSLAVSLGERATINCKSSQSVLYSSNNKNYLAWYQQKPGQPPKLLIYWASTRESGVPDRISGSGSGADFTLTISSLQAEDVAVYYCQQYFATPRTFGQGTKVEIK
B9: TCN-557 (5081_A04) (antibody, V domains shown)
VH: QVQLVQSGAEVKKPGASVKVSCKASGHTFTGYYIHWVRQAPGQGLEWMGWINPDSGATSSAQNFQGRVTMTGDTSSSTAYMELSRLSFDDTAVYYCARVLFTSPFDFWGEGTLVTVSS
VL: QAVVTQEPSLAVSPGGTVTLTCGSSTGAVTRGHYPYWFQQKPGQAPRALIYDSAGNRHSWTPARFSGSLLGGKAALTLSGAQPEDEAEYYCLLSYSGVWVFGGGTKLTVL
B10: TCN-523 (5248_A17) (antibody, V domains shown)
VH: QVQLVQSGAEVKKPGSSVKVSCKASGGSFSNYAFSWVRQAPGQGLEWMGGTIPLLGTTNYAQKFQGRVTISADQFTSTAYMELGSLRSEDTAVYYCTRRKMTTAFDSWGQGTLVTVSS
VL: QPVLTQPPSASASLGASVTLTCTLSSAYSNYKVDWYQQRPGKGPRFVMRVGTGGIVGSKGDGIPDRFSVLGSGLNRYLTIKNIQEEDESDYHCGADHGSGSNFVSPYVFGGGTKLTVL
B11: TCN-544 (5082_A19) (antibody, V domains shown)
VH: QVQLQESGPGLVKPSETLSLTCTVSRGSIGHYFWSWIRQPPGKGLEWIGYISYSGSTKYNPSLRSRVTISVDTSKNQFSLNLNSVTATDTALYYCAREDYDILTGAGPGMEVWGQGTTVTVSS
VL: QSMLTQPPSASGTPGQRVTISCSGSSSNIGSNTVNWFKHLPGTAPKLLIYRNDLRPSGVPDRFSGSKSGTSASLAISGLQSEDEADYYCATWDDSLNGFYVFGTGTKVTVL
B12: TCN-534 (5249_B02) (antibody, V domains shown)
VH: QVQLVQSGAEVKKPGSSVKVSCRESGGTFNGYTITWVRQAPGQGLEWMGGIIPMMGTVNYAQKLQGRVTITTDYFTKTAYMDLNNLRSEDTAMYYCVKIRYTGQQLLWGQGTLVTVSS
VL: DIQMTQSPSTLSASIGDRVTITCRASQSIASWLAWYQQKPGKAPKLLIYEAVNLESGVPSRFSGSGSGTDFTLTISSLQPDDFATYFCQHYGTISQTFGGGTKVEIK
B13: TCN-504 (3251_K17) (antibody, V domains shown)
VH: QVQLQESGPGLVKPSETLSLTCAVSGVSISNIDFYWGWIRQPPGKGLEWIGNIYYTGITFYNPSLSSRVAISIDTSKNQFSLTLTSVTAADTAMYYCARHYGDSEAINDAFDIWGQGTMLTVSS
VL: EIVMTQSPATLSVSPGERATLSCRASQSVGNSLAWYQQRPGQAPRLLIYGASTRATGIPPRFSGSGSGTEFTLTISSLQTEDFAVYYCQQYINWRPLSFGGGTKVEIK
B14: TCN-538 (3206_O17) (antibody, V domains shown)
VH: QITLKESGPTLVKPTQTLTLTCVFSGFSLSITGVRVGWIRQPPGKALEWLALISWDDEKHYSPSLQSRLTITKDTSKNQVVLTMTNLDPVDTATYYCARSTDRGHVLRYFGWMLPGDAFDVWGQGTMVTVSS
VL: DIVMTQSPDFLPVSLGERATINCKSSQRVLYSSNNKNYLAWYQLKPGQPPKLIIYWASTRESGVPDRFSGSGSGTEFTLTISSLQAEDVAVYYCQQYYSRPYTFGQGTKLEIK
B15: TCN-543 (5081_G23) (antibody, V domains shown)
VH: QVHLVQSGAEVRKPGDSVKVSCKTSGYTFSTYPVAWVRQVPGQGLEWMGWISTYNGNTNFAQNFQGRVTLTTDTTTNTAYMEVRSLKFDDTAVYYCARVEGSYRDFWNNQNRFDPWGQGTLVTVSS
VL: SYVLTQPPSVSVAPGQTARISCGGSNIGGKSVHWYQQKPGQAPVLVVYDDSGRPSGIPERFSGSNSGDTATLTISRVEAGDEADYFCQVWDNFGGVFGTGTKVTVL
B16: TCN-545 (5082_I15) (antibody, V domains shown)
VH: QVQLQQWGAGLLKPSETLSLSCAVFGGSFSDYYWTWIRQPPGKGLEWIGEIKHSGRTNYNPSLESRVTISVDTSKNQFSLKLSSVTAADTAIYYCARGTDPDTEGYCRSGSCSAFDFWGQGTLVTVSS
VL: EIVLTQSPGTLSLSPGERATLSCRASHFVNYRSLAWYQQTPGQVPRLLIYGASTRATGIPDRFSGSGSGTDFTLTISRLEPEDFAVYFCQQYGGSPRYTFGQGTRLEIK
B17: TCN-536 (5095_N01) (antibody, V domains shown)
VH: QVQLQQWGAGLLKPSETLSLTCAVYGGSFSVSGYYWSWIRQPPGRGLEWIGEISHGGSTNYNPSLKSRVTISVDTTKNQFSLRLSSVTAADTAVYYCARGTDPDTEVYCRVGNCAAFDYWGQGSLVTVSS
VL: EIILAQSPGTLSLSPGERATLSCRASQFVSTRSLAWYQQRPGQAPRLLIYGASSRATGIPDRFSGSGSGTDFTLTISRLEPEDFAVYYCQHYGYSPRYAFGQGSKVEIK
B18: TCN-539 (5056_A08) (antibody, V domains shown)
VH: QVQLVESGGGVVQPGRSLRLSCAASEITFITYAMHWVRQAPGKGLEWVALISDDGSNKFYADSVKGRFTISRDNSKNTLYLQMNSLRAEDTAAYYCAREGVYFDSGTYRGYFDYWGQETLVTVSS
VL: EIVLTQSPATLSLSPGERATLSCRASQSVSSYLAWYQQKPGQAPRLLIYDASNRATGIPARFSGSGSGTDFTLTISSLEPEDFAVYYCQQRSHWPPITFGQGTRLEIK
B19: TCN-540 (5060_F05) (antibody, V domains shown)
VH: QVQLVQSGGGVVQPGRSLRLSCAASGFTFSSYAMHWVRQAPGKGLEWVAIISYDGNDQYYTDSVKGRFTISRDSSKVYLQMHRLRPEDTAVYYCAKEFETSGYFHGSFDYWGQGILVTVSS
VL: QSALTQPASVSGSPGQSITISCTGTSSDVGGYNYVSWYQQHPGKAPKLLIYEVTNWPSGVSNRFSGSKSGNTASLTISGLQAEDEADYYCSSYAGSSTWVFGGGTRVTVL
B20: TCN-537 (3194_D21) (antibody, V domains shown)
VH: QVQLQQWGSGLLKPSETLSLTCAVYGGSFRDDYWTWIRQPPGKGLEWIGEINHSGRTNYNPSLKSRVTISVDTSLKQFSLKVISVTAADTAVYYCARGTSHVSRYFDWLPPTNWFDPWGQGTQVTVSS
VL: DIVLTQSPGTLSLSPGERATLSCRASQSVSSSYLAWYQQKPGQAPRLVMYGAATRATGIPDRFSGSGSGPDFTLTISRLEPEDFAMYYCQQYGNSPITFGQGTRLEIK
B21: TCN-535 (5246_P19) (antibody, V domains shown)
VH: QVQLVQSGSEVKKPGTSVKVSCTASGSVFTNYGISWVRQAPGQGLEWMGGIIPLFGAAKYAQKFQGRVTITADESTKTVYMELSRLTSKDTAIYFCAKAPRVYEYYFDQWGQGTPVTVSS
VL: EIVLTQSPGTLSLSPGERATLSCRASQSVSSSQLAWYQQKPGQAPRLIIYGASTRATGIPDRFSGSGSGTDFTLTIGRLEPEDFAVFFCQQYSTSPPTFGQGTKVDFK

Target: hemagglutinin (HA) of influenza A/Japan/305/57 (H2N2) on whole virions (Influenza A virus A/Japan/305/1957(H2N2), UniProt P03451 16-562)
Test: ELISA; BCC supernatant on coated inactivated whole virions

Binder	ELISA virus binding (OD450)
B1	0.71
B2	0.08
B3	0.06
B4	0.06
B5	2.41
B6	0.07
B7	2.54
B8	0.09
B9	2.7
B10	1.62

Target: hemagglutinin on live influenza A virus, A/California/4/09 H1N1 (Influenza A virus …)
Test: cell-based or functional assay

Binder	% Neutralization [%]
B11	0
B12	96.4
B13	0
B14	66
B15	0
B16	0
B17	18.8
B18	0
B19	0
B20	71
B21	97.3
